Test [1] concerns the target HLA-B*08:01. Description: IEDB peptide-MHC binding, purified MHC/competitive/fluorescence; filed as Kd, often an IC50 or EC50 that approximates it; ≥ and ≤ were set here for values at or beyond the usual limits of such assays.
The next test addresses HLA-A*24:02. Description: IEDB peptide-MHC binding, purified MHC/competitive/fluorescence; ≥ and ≤ were set here for values at or beyond the usual limits of such assays.
Test [2] concerns the target HLA-A*01:01. The description is as above.
In test [3] the target is HLA-A*02:01. The description is as above.
The target in test [4] is HLA-B*15:01. The test is described as above.
A further test addresses HLA-A*30:01. Kind of test: IEDB peptide-MHC binding, purified MHC/direct/fluorescence; filed as Kd, often an IC50 or EC50 that approximates it; ≥ and ≤ were set here for values at or beyond the usual limits of such assays.
For the next test, the target named is HLA-B*44:02. Described as above.
The target in test [5] is HLA-A*03:01. The description is as above.
The next test addresses HLA-B*07:02. The test is described as above.
A further test has as its target HLA-B*35:01. The test is described as above.
The target of another test is HLA-A*69:01. The description is as above.
A further test deals with HLA-B*27:05. The test is described as above.
In test [6] the target is HLA-A*01:01. The description is as above.
In test [7] the target is HLA-A*02:01. The test is described as above.
In a further test the target is HLA-B*40:01. The test is described as above.
In test [8] the target is HLA-B*15:01. Described as above.
Another test deals with HLA-B*58:01. The description is as above.
A further test deals with HLA-A*31:01. The test is described as above.
Test [9] addresses HLA-A*11:01. The test is described as above.
Test [10] deals with HLA-B*08:01. The description is as above.
A further test deals with HLA-A*26:01. Described as above.
For the next test, the target named is HLA-B*08:02. Described as above.
In a further test the target is HLA-A*24:03. Described as above.
For the next test, the target named is HLA-C*12:03. The test is described as above.
A further test concerns the target HLA-B*46:01. Described as above. Conditions: source organism: Burkholderia mallei.
The target of the next test is HLA-B*48:01. Described as above. The following applies: source organism: Burkholderia mallei.
The target of test [11] is HLA-A*03:01. Kind of test: IEDB peptide-MHC binding, purified MHC/competitive/fluorescence; ≥ and ≤ were set here for values at or beyond the usual limits of such assays.
Test [12] deals with HLA-A*11:01. The test is described as above.
Another test has as its target HLA-C*05:01. Description: IEDB peptide-MHC binding, purified MHC/direct/fluorescence; filed as Kd, often an IC50 or EC50 that approximates it; ≥ and ≤ were set here for values at or beyond the usual limits of such assays. Conditions: source organism: Homo sapiens.
The mark [13] stands for this setting: source organism: Vaccinia virus Copenhagen.
Where [14] appears, read: source organism: Coxiella burnetii.
The mark [15] stands for this setting: source organism: Vaccinia virus WR.
Where [16] appears, read: source organism: Vibrio vulnificus.
[17] abbreviates: source organism: Burkholderia mallei ATCC 23344.
Setting [18] is: source organism: Escherichia coli O157:H7.
The mark [19] stands for this setting: source organism: Vibrio cholerae.
Where [20] appears, read: source organism: Vaccinia virus.
Setting [21] is: source organism: Escherichia coli O6.
[22] abbreviates: source organism: Shigella flexneri.
[23] abbreviates: source organism: Zaire ebolavirus.

By Kd is commonly meant the constant that tells how readily two partners part at equilibrium. As a reminder, the IC50 is the concentration needed to halve the response being measured.

TLHFKQYEF gave an equilibrium dissociation constant (Kd) in the test with HLA-B*08:01 [1] (source organism: Influenza A virus (A/Wyoming/3/2003-X-147(H3N2))) of 0.433 µM.
In the case of LSSQMTSTF, the concentration for half-maximal inhibition (IC50) was 0.788 µM with HLA-A*24:02 (setting [13]), no less than 129 µM with HLA-A*01:01 [2] (setting [13]), no less than 155 µM in the test with HLA-A*02:01 [3] (setting [13]) and 4.85 µM with HLA-B*15:01 [4] (setting [13]).
As to VPPESVEAA, the Kd is no less than 20 µM with HLA-A*30:01 (setting [14]); no less than 20 µM in the test with HLA-B*44:02 (setting [14]); no less than 20 µM with HLA-A*03:01 [5] (setting [14]); 12.2 µM with HLA-B*07:02 (setting [14]); 1.56 µM with HLA-B*35:01 (setting [14]); no less than 20 µM with HLA-A*69:01 (setting [14]). Moreover, the equilibrium dissociation constant (Kd) in the test with HLA-B*27:05 (setting [14]), with HLA-A*01:01 [6] (setting [14]), in the test with HLA-A*02:01 [7] (setting [14]), with HLA-B*40:01 (setting [14]), in the test with HLA-B*15:01 [8] (setting [14]) and with HLA-B*58:01 (setting [14]) was no less than 20 µM in each case. Further, the Kd in the test with HLA-A*31:01 (setting [14]), with HLA-A*11:01 [9] (setting [14]), with HLA-B*08:01 [10] (setting [14]) and with HLA-A*26:01 (setting [14]) was no less than 20 µM in each case.
Take PIDSHKGYV: the values for the IC50 in the test with HLA-A*01:01 [2] (setting [15]) and in the test with HLA-A*02:01 [3] (setting [15]) were 29.4 µM and no less than 129 µM, respectively.
VINWKGKEL registered a Kd with HLA-B*08:02 (source organism: dengue virus type 3) of no less than 20 µM.
Regarding NGYRWQHQI, the dissociation constant (Kd) with HLA-B*44:02 (setting [16]) was no less than 20 µM; with HLA-A*03:01 [5] (setting [16]) it was no less than 20 µM; in the test with HLA-B*35:01 (setting [16]), 0.843 µM; with HLA-A*69:01 (setting [16]) it was 0.0174 µM; in the test with HLA-B*27:05 (setting [16]) it was no less than 20 µM; in the test with HLA-A*01:01 [6] (setting [16]) it was no less than 20 µM. Moreover, the Kd with HLA-A*02:01 [7] (setting [16]) is 1.35 µM; in the test with HLA-B*40:01 (setting [16]), no less than 20 µM; with HLA-B*15:01 [8] (setting [16]) it was no less than 20 µM; with HLA-A*31:01 (setting [16]) it was no less than 20 µM; with HLA-A*11:01 [9] (setting [16]) it was no less than 20 µM; in the test with HLA-A*24:03 (setting [16]), 7.53 µM. Also, the Kd with HLA-A*26:01 (setting [16]) was no less than 20 µM.
For YMKAPSGAL, the Kd with HLA-C*12:03 (source organism: Burkholderia mallei SAVP1) stood at 0.005 µM; with HLA-B*46:01, 1.95 µM; in the test with HLA-B*07:02 (setting [17]) it was 0.009 µM; in the test with HLA-B*35:01 (setting [17]), 3.13 µM; with HLA-B*48:01, 0.047 µM; with HLA-B*15:01 [8] (source organism: Burkholderia mallei), 0.0385 µM.
As for IAIPAHVRL, the Kd with HLA-B*44:02 (setting [18]) is no less than 20 µM; with HLA-A*03:01 [5] (setting [18]), no less than 20 µM; in the test with HLA-B*07:02 (setting [18]), 8.52 µM; with HLA-B*35:01 (setting [18]) it was 0.392 µM; in the test with HLA-A*69:01 (setting [18]), 0.227 µM; with HLA-B*27:05 (setting [18]) it was no less than 20 µM. For the same sequence, the Kd with HLA-A*01:01 [6] (setting [18]) is no less than 20 µM; in the test with HLA-A*02:01 [7] (setting [18]), no less than 20 µM; with HLA-B*40:01 (setting [18]), no less than 5 µM; with HLA-B*15:01 [8] (setting [18]), 1.81 µM; with HLA-A*31:01 (setting [18]), no less than 20 µM; in the test with HLA-A*11:01 [9] (setting [18]), no less than 20 µM. Moreover, the dissociation constant (Kd) in the test with HLA-B*08:01 [10] (setting [18]) is 4.46 µM; with HLA-A*26:01 (setting [18]), no less than 20 µM.
With RPRIRLSAP, the equilibrium dissociation constant (Kd) is 3.77 µM with HLA-A*30:01 (setting [19]); no less than 20 µM with HLA-B*44:02 (setting [19]); no less than 20 µM with HLA-A*03:01 [5] (setting [19]); 0.0278 µM with HLA-B*07:02 (setting [19]); no less than 20 µM in the test with HLA-A*69:01 (setting [19]); no less than 20 µM with HLA-B*27:05 (setting [19]). Besides, the equilibrium dissociation constant (Kd) with HLA-A*01:01 [6] (setting [19]), with HLA-A*02:01 [7] (setting [19]), in the test with HLA-B*40:01 (setting [19]), with HLA-B*15:01 [8] (setting [19]), in the test with HLA-B*58:01 (setting [19]) and with HLA-A*31:01 (setting [19]) was no less than 20 µM each time. The Kd with HLA-A*11:01 [9] (setting [19]) was no less than 20 µM; with HLA-B*08:01 [10] (setting [19]), 1.89 µM; with HLA-A*24:03 (setting [19]), no less than 20 µM; in the test with HLA-A*26:01 (setting [19]) it was no less than 20 µM.
With AMEKSSKYY, the IC50 in the test with HLA-A*03:01 [11] (setting [20]) was no less than 142 µM; with HLA-A*24:02 (setting [20]) it was no less than 962 µM; in the test with HLA-A*01:01 [2] (setting [20]), 28.5 µM; with HLA-A*02:01 [3] (setting [20]), no less than 1170 µM; with HLA-B*15:01 [4] (setting [20]), 11 µM; with HLA-A*11:01 [12] (setting [20]), no less than 195 µM.
As to KTTLFHTFK, the dissociation constant (Kd) in the test with HLA-A*30:01 (setting [21]) is 0.00609 µM; in the test with HLA-B*44:02 (setting [22]) it was no less than 20 µM; in the test with HLA-A*03:01 [5] (setting [21]), 0.122 µM; with HLA-B*07:02 (setting [22]), no less than 20 µM; in the test with HLA-A*69:01 (setting [22]), no less than 20 µM; with HLA-B*27:05 (setting [22]) it was no less than 20 µM. In addition, the dissociation constant Kd in the test with HLA-A*01:01 [6] (setting [22]) is no less than 20 µM; in the test with HLA-A*02:01 [7] (setting [22]) it was no less than 20 µM; in the test with HLA-B*40:01 (setting [22]), no less than 20 µM; in the test with HLA-B*15:01 [8] (setting [22]) it was no less than 20 µM; with HLA-B*58:01 (setting [21]) it was 9.38 µM; in the test with HLA-A*31:01 (setting [21]), 0.0304 µM. For the same sequence, the Kd in the test with HLA-A*11:01 [9] (setting [21]) is 0.0162 µM; in the test with HLA-B*08:01 [10] (setting [22]), no less than 20 µM; in the test with HLA-A*24:03 (setting [22]), no less than 20 µM; with HLA-A*26:01 (setting [22]) it was no less than 20 µM.
In the case of LAARKARAA, the dissociation constant Kd in the test with HLA-B*08:01 [1] (source organism: Escherichia coli) is 0.644 µM.
With TPVWHVTSA, the Kd in the test with HLA-A*03:01 [5] (setting [21]) is no less than 20 µM; with HLA-B*07:02 (setting [21]), 0.0181 µM; with HLA-B*35:01 (setting [21]) it was 0.0209 µM; with HLA-A*69:01 (setting [21]), no less than 20 µM; with HLA-B*27:05 (setting [21]), no less than 20 µM; in the test with HLA-A*01:01 [6] (setting [21]) it was no less than 20 µM. For the same sequence, the dissociation constant (Kd) with HLA-A*02:01 [7] (setting [21]), with HLA-B*40:01 (setting [21]), in the test with HLA-B*15:01 [8] (setting [21]), in the test with HLA-B*58:01 (setting [21]), with HLA-A*31:01 (setting [21]) and with HLA-A*11:01 [9] (setting [21]) was no less than 20 µM in each case. Besides, the Kd with HLA-B*08:01 [10] (setting [21]), in the test with HLA-A*24:03 (setting [21]) and with HLA-A*26:01 (setting [21]) was no less than 20 µM in each case.
In the case of FLRRRRAAL, the equilibrium dissociation constant (Kd) with HLA-B*08:02 (setting [17]) came to 0.071 µM.
For LVMAPRTVL, the Kd in the test with HLA-C*12:03 (source organism: Homo sapiens) was 0.102 µM; with HLA-B*07:02 (source organism: Homo sapiens) it was 0.179 µM; in the test with HLA-A*69:01 (source organism: Homo sapiens), 3.61 µM; with HLA-A*02:01 [7] (source organism: Homo sapiens) it was no less than 39.5 µM; with HLA-B*15:01 [8] (source organism: Homo sapiens) it was 0.731 µM; with HLA-A*11:01 [9] (source organism: Homo sapiens), 10.3 µM. The dissociation constant (Kd) with HLA-C*05:01 amounted to 2.04 µM.
In the case of RVNPGTYVY, the IC50 came out at 4.32 µM with HLA-A*03:01 [11] (source organism: Variola virus), 10.3 µM in the test with HLA-A*01:01 [2] (source organism: Variola virus), 9.02 µM with HLA-B*15:01 [4] (source organism: Variola virus) and 0.701 µM with HLA-A*11:01 [12] (source organism: Variola virus).
Turning to YSTTIRYQA, the results for the half-inhibitory concentration (IC50) in the test with HLA-A*01:01 [2] (setting [23]) and in the test with HLA-A*02:01 [3] (setting [23]) were no less than 207 µM and 42.3 µM, respectively.
